The source of these data is patent US20040037775.

Series [1] has as its system T1, MTX-cIBR conjugate (methotrexate-cyclo-Leu Pro Arg Gly Gly Ser Val Leu Val Thr).
T1 sequence: LPRGGSVLVT

Another series concerns T2, MTX-cIBL conjugate.
T2 sequence: QTSVSPSKVI

Consider dihydrofolate reductase enzyme (DHFR), for which the “Km relative to MTX” value is “approximately 4 and 15 fold times less than that of MTX, respectively” in series [1]; “approximately 4 and 15 fold times less than that of MTX, respectively” in the series on MTX-cIBL conjugate.
